Key:
[1] = target: T1, cell surface PD-L1 on MDA-MB231 cells (human, UniProt Q9NZQ7 19-290); assay: flow cytometry on MDA-MB231 cells, biotinylated antibody, streptavidin-PE detection
T1 construct: Endogenous PD-L1 of the human cell line; also called cell surface expressed human PD-L1; MDA-MB 231 cells (PD-L1-positive human breast adenocarcinoma cell line)
Protocol: Plate are centrifuged at 1200 rpm for 5 minutes and supernatant removed. 100 μL of antibody-biotin (serially diluted by 1:4 starting from 10 μg/ml) is added. A total of 6 serial dilutions are evaluated. After incubation at 4° C. for 30 minutes, cells are washed twice with DPBS. 100 μL of detection buffer containing 5 μL streptavidin-PE is added. After incubation at 4° C. for 30 more minutes, plate is centrifuged and washed twice with DPBS. Cells are re-suspended in 200 μL DPBS for FACS analysis.

[2] = target: T2, cynomolgus monkey PD-L1-Fc fusion protein (cynomolgus monkey); assay: SPR (Biacore T200), antibody immobilized, PD-L1-Fc as analyte, 37 C, 1:1 model
T2 construct: Soluble analyte in SPR; also called Cyno PD-L1
Protocol: (§1) Immobilization of antibodies of the present invention as ligand on to sensor chip surface is performed at 25° C. […] The analysis is performed at 37° C. The contact time for each sample is 180 seconds at 30 μL/minute. The dissociation time was 240-1500 seconds. The immobilized surface is regenerated for 18 seconds with 0.95 M NaCl/25 mM NaOH at 30 μL/minute, and then stabilized for 30 seconds. Binding kinetics are analyzed using the Biacore T200 Evaluation software (Version 3.0). Data are referenced to a blank flow cell, and the data are fit to a 1:1 binding model.

[3] = target: T3, human PD-L1-Fc fusion protein (human, UniProt Q9NZQ7 19-239); assay: as above
T3 construct: treated as one molecule; also called soluble human PD-L1-Fc fusion protein; human PD-L1-Fc (R&D Systems); not shown: Fc part
T3 sequence (Q9NZQ7 19-239 limits assumed): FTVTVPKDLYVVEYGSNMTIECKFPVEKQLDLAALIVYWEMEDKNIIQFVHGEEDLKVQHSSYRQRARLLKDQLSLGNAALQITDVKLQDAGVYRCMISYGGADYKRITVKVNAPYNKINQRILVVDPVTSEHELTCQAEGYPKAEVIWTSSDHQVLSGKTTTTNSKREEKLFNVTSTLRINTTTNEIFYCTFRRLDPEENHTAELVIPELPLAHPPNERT
Protocol: as §1

[4] = target: T3, human PD-L1-Fc fusion protein; assay: ELISA, plate coated with human PD-L1-Fc (R&D Systems), anti-human IgG F(ab')2-HRP detection
Protocol: Wells are blocked for 2 hours with blocking buffer (PBS containing 5% nonfat dry milk). Wells are washed three times with PBS containing 0.1% TWEEN®-20. […] After washing, the plate is incubated with 100 μL of goat anti-human IgG F(ab′)2-HRP conjugate (Jackson Immuno Research) at room temperature for 1 hour. The plates are washed and then incubated with 100 μL of 3,3′, 5,5′-tetra-methylbenzidine. The absorbance at 450 nm is read on a microplate reader. The half maximal effective concentration (EC₅₀) is calculated using GraphPad Prism 6 software.

[5] = target: T4, biotinylated PD-L1-Fc fusion protein (Homo sapiens (Human), UniProt Q9NZQ7 19-238, limits assumed, biotinylated (sites not given)); assay: blocking ELISA: antibody premixed with biotinylated PD-L1-Fc (100 ng/well), plate coated with PD-1-Fc (1 ug/ml)
T4 construct: not shown: Fc part
T4 sequence (Q9NZQ7 19-238 limits assumed): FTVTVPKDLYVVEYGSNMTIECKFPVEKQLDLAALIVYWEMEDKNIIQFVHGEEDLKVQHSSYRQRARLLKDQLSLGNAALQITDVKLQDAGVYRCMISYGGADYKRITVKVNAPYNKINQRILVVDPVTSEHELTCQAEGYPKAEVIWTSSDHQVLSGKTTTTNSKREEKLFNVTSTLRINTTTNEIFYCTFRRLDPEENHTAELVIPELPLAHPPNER

[6] = target: T4, biotinylated PD-L1-Fc fusion protein; assay: blocking ELISA: antibody premixed with biotinylated PD-L1-Fc, plate coated with B7-1-Fc (1 ug/ml, R&D Systems)

T1 sequence (Q9NZQ7 19-290 limits assumed): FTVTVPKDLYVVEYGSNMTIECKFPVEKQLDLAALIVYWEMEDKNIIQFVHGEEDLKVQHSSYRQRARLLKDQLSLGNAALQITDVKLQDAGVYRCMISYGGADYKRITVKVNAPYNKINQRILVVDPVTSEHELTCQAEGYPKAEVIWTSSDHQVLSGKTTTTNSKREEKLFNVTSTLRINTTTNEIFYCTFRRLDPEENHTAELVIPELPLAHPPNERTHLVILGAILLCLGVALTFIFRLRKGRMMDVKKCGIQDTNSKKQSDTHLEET

- EC50 [1]: 0.14 nM
- Kd [2]: 0.122 nM
- koff [2]: 0.000184 s⁻¹
- kon [2]: 1.51e+06 M⁻¹ s⁻¹
- Kd [3]: 0.082 nM
- koff [3]: 0.000114 s⁻¹
- kon [3]: 1.4e+06 M⁻¹ s⁻¹
- EC50 [4]: 0.11 nM
- IC50 [5]: 0.95 nM
- IC50 [6]: 2.4 nM
B1: LY3300054 (antibody, human IgG1, lambda, V domains shown)
VH: QVQLVQSGAEVKKPGSSVKVSCKASGGTFSSYAISWVRQAPGQGLEWMGGIIPIFGTANYAQKFQGRVTITADKSTSTAYMELSSLRSEDTAVYYCARSPDYSPYYYYGMDVWGQGTTVTVSS
VL: QSVLTQPPSASGTPGQRVTISCSGSSSNIGSNTVNWYQQLPGTAPKLLIYGNSNRPSGVPDRFSGSKSGTSASLAISGLQSEDEADYYCQSYDSSLSGSVFGGGIKLTVLG
notes: Biotinylated antibody was used in the flow cytometry assay; also called anti-PD-L1 antibody

From US20190269666A1 (Eli Lilly, published 2019)
